Measurements published in paper PMC5505973.

Test system: Tal7 (His-Tal7) (Xanthomonas oryzae pv. oryzicola RS105)
Assay: MST

Row | Substance | Kd [µM]
1 | Os09g29100 promoter MST fragment | 2.26
2 | Os12g42970 promoter MST fragment | 2.93
